T1: human CD39 (vascular CD39, NTPDase1) expressed at the surface of cells (human, UniProt P49961 1-510)
T1 construct: also called huCD39; CHO-huCD39
T1 sequence: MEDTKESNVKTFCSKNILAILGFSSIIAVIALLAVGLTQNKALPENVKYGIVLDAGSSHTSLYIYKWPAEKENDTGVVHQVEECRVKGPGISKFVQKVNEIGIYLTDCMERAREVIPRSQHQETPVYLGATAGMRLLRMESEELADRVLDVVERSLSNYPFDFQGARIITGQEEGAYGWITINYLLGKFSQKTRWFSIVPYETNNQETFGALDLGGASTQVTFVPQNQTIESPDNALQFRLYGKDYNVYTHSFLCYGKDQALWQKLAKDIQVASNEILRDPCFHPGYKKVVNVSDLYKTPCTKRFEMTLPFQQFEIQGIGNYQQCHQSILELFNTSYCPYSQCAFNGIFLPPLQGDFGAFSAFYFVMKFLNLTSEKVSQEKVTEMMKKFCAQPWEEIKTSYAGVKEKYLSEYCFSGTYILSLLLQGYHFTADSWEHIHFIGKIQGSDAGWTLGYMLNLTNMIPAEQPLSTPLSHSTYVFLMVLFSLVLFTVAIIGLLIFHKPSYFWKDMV

T2: human CD39 mutant 19 (human, UniProt P49961 1-510)
T2 construct: Expressed on Hek-293T cells; also called M19
T2 chain: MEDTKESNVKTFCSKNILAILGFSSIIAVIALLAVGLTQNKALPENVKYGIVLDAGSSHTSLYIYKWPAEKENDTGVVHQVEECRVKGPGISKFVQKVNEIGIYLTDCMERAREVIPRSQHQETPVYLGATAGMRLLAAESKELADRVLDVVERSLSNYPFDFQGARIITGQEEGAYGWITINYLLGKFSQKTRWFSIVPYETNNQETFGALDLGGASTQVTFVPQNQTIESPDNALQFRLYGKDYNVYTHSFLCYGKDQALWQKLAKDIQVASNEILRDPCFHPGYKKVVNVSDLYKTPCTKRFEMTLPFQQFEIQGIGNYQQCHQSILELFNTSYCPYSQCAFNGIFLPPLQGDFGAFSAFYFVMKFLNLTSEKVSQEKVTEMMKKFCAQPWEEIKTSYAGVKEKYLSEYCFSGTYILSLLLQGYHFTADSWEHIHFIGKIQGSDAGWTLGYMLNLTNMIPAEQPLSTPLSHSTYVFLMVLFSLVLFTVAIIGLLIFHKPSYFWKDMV

T3: human CD39 mutant 15 (human, UniProt P49961 1-510)
T3 construct: Expressed on Hek-293T cells; also called M15
T3 chain: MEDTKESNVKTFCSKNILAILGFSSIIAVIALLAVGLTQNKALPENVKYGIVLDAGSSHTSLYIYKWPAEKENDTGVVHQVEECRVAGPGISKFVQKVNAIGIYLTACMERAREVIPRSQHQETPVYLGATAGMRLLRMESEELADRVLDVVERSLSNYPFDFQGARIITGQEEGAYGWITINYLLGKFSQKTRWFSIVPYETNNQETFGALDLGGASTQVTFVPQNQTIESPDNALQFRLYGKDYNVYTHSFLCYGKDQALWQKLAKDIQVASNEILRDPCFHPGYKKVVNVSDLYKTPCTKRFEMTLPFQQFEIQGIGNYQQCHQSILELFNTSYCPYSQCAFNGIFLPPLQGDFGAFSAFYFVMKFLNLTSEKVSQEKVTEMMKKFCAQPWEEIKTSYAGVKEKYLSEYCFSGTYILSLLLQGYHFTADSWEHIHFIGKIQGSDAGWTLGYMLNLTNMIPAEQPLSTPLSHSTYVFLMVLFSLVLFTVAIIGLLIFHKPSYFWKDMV

T4: human CD39 mutant 5 (human, UniProt P49961 1-510)
T4 construct: Expressed on Hek-293T cells; also called M5
T4 chain: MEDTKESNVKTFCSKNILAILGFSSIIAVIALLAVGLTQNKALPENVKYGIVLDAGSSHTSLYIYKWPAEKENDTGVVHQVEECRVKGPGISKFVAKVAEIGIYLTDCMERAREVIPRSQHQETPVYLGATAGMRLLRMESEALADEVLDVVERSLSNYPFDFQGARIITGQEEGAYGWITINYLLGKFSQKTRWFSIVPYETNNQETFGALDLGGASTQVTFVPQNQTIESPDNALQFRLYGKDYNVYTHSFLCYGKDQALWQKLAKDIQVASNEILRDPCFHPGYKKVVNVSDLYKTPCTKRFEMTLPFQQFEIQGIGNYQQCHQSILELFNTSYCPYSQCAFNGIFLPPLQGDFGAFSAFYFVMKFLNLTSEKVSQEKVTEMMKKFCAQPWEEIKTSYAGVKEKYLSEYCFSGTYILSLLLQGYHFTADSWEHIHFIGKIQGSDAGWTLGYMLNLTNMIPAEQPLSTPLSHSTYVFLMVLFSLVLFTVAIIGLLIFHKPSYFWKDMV

T5: human CD39 mutant 11 (human, UniProt P49961 1-510)
T5 construct: Expressed on Hek-293T cells
T5 sequence: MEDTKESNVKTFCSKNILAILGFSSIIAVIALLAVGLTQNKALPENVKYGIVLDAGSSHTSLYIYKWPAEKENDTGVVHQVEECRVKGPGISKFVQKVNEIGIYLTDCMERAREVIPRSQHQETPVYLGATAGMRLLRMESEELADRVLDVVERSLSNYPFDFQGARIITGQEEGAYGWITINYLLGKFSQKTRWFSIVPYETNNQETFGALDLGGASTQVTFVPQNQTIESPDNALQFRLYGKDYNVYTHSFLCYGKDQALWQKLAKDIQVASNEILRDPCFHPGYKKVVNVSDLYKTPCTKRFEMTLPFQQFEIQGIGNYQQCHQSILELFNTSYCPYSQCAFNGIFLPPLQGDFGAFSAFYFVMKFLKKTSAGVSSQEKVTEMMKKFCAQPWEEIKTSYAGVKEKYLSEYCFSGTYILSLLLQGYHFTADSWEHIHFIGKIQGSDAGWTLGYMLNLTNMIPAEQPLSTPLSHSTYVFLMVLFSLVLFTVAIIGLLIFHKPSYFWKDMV


Tests used:
[1] = molecular target: T1, human CD39 (vascular CD39, NTPDase1) …; assay: flow cytometry on Hek-293T cells expressing wild-type CD39 (panel WT); unstained (US) median 10,3; antibody concentration not shown
Procedure: (§1) Mutants were transfected in Hek-293T cells, as shown in the table 1, using numbering of SEQ ID NO: 1. […] Mutant 19 includes substitutions at residues R138, M139 and E142.
(§2) In order to define the epitopes of the further anti-CD39 antibodies of Example 5, they were tested for loss of binding to the panel of CD39 mutants as described in Example 1 and Table 1. Mutants were transfected in Hek-293T cells, as shown in the table 1, using numbering of SEQ ID NO: 1.Dose-ranges of test antibodies (10-2.5-0.625-0.1563-0.0391-0.0098-0.0024-0.0006 μg/ml) are tested on the 20 generated mutants by flow cytometry.

human CD39 mutant 19 [2] = molecular target: T2, human CD39 mutant 19; assay: flow cytometry on Hek-293T cells expressing CD39 mutant 19 (panel M19); unstained (US) median 8,98; antibody concentration not shown
Procedure: as §1, §2

human CD39 mutant 15 [3] = molecular target: T3, human CD39 mutant 15; assay: flow cytometry on Hek-293T cells expressing CD39 mutant 15 (panel M15)
Procedure: as §2

human CD39 mutant 5 [4] = molecular target: T4, human CD39 mutant 5; assay: flow cytometry on Hek-293T cells expressing CD39 mutant 5 (panel M5); unstained (US) median 8,98; antibody concentration not shown
Procedure: as §1, §2

human CD39 mutant 15 [5] = molecular target: T3, human CD39 mutant 15; assay: flow cytometry on Hek-293T cells expressing CD39 mutant 15 (panel M15); unstained (US) median 8,98; antibody concentration not shown
Procedure: as §1, §2

human CD39 mutant 5 [6] = molecular target: T4, human CD39 mutant 5; assay: flow cytometry on Hek-293T cells expressing CD39 mutant 5 (panel M5)
Procedure: as §2

human CD39 mutant 19 [7] = molecular target: T2, human CD39 mutant 19; assay: flow cytometry on Hek-293T cells expressing CD39 mutant 19 (panel M19)
Procedure: as §1, §2

human CD39 mutant 5 [8] = molecular target: T4, human CD39 mutant 5; assay: flow cytometry, Hek-293T cells expressing the mutant
Procedure: as §2

human CD39 mutant 11 = molecular target: T5, human CD39 mutant 11; assay: as above
Procedure: as §2

human CD39 mutant 15 [9] = molecular target: T3, human CD39 mutant 15; assay: as above
Procedure: as §2

human CD39 mutant 19 [10] = molecular target: T2, human CD39 mutant 19; assay: as above
Procedure: as §2

| Binder | Median : Comp-Alexa Fluor 647-A [1] | Median : Comp-Alexa Fluor 647-A (human CD39 mutant 19 [2]) | binding result (human CD39 mutant 15 [3]) | Median : Comp-Alexa Fluor 647-A (human CD39 mutant 5 [4]) | Median : Comp-Alexa Fluor 647-A (human CD39 mutant 15 [5]) | binding result (human CD39 mutant 5 [6]) | binding result (human CD39 mutant 19 [7]) | binding result (human CD39 mutant 5 [8]) | binding result (human CD39 mutant 11) | binding result (human CD39 mutant 15 [9]) | binding result (human CD39 mutant 19 [10]) |
| --- | --- | --- | --- | --- | --- | --- | --- | --- | --- | --- | --- |
| antibody I-396 (antibody, V domains shown) VH: EVQLQQSGAELVKPGASVKLSCIVSGFNIKDTYINWVKQRPEQGLEWIGRIDPANGNTKYDPKFQGKATMTSDTSSNTAYLHLSSLTSDDSAVYYCARWGYDDEEADYFDSWGQGTTLTVSS VL: not shown | 4340 | 8890 | no binding | 8190 | 35.9 | – | – | – | – | – | – |
| antibody I-395 (antibody, V domains shown) VH: EVQLQQSGPELVKPGASVRMSCKASGYTFTDYNMHWVKKNHGKGLEWIGYINPNNGGTTYNQKFKGKATLTVNTSSKTAYMELRSLTSEDSAVYYCTRGGTRFASWGQGTLVTVSA VL: not shown | 4240 | 15.4 | – | 52.6 | 5750 | no binding | no binding | – | – | – | – |
| antibody I-399 (antibody, V domains shown) VH: PVQLQQPGAEVVMPGASVKLSCKASGYTFTSFWMNWMRQRPGQGLEWIGEIDPSDFYTNSNQRFKGKATLTVDKSSSTAYMQLSSLTSEDSAVYFCARGDFGWYFDVWGTGTSVTVSS VL: EIVLTQSPTTMTSSPGEKITFTCSASSSINSNYLHWYQQKPGFSPKLLIYRTSNLASGVPTRFSGSGSGTSYSLTIGTMEAEDVATYYCQQGSSLPRTFGGGTKLEIK | – | – | – | – | – | – | – | binds | no binding (tested: dose range up to 10 µg/ml) | binds | binds |

From patent US20190389961A1 (INNATE PHARMA, published 2019)
